The target of data set [1] is T1, α-actinin rod domain, spectrin repeats 1–4 (R1-R4) of human α-actinin 2 (Homo sapiens, UniProt P35609).
T1 construct: Rod fragments containing spectrin repeats 1–4 (residues 274–746); His-tag (cleaved yes); made in house; host or cells: Escherichia coli BL21(DE3)
As to the kind of experiment: SPR interaction with α-actinin rod R1-R4. Particulars: for Kd: SPR, 20 mM Tris pH 7.4, 150 mM NaCl, 0.005% P20. Type of data set: binding. The text has this:
(§1) Internal fragments of human ALP (AF039018) and chicken ALP (AJ249218) were cloned into a modified pET24d vector (Novagen, Merck Biosciences, Schwalbach, Germany) as described earlier using BsmBI (NcoI)- NotI cloning sites. Rod fragments containing spectrin repeats 1–4 (residues 274–746) or repeats 2 and 3 (residues 371–637) of human α-actinin 2 have been described previously. A YFP-fusion of ALP107-273 was generated in a pEYFP-C1 vector (Clontech, BD Biosciences) at an EcoRI-BamHI restriction site. The deletion constructs of pEYFP-ALP107-273 were generated by PCR. The α-Actinin-CFP construct is described elsewhere. All constructs were verified by DNA sequencing.
(§2) ALP internal fragments and an α-actinin rod containing the spectrin repeats 1–4 (R1-R4) and a fragment containing spectrin repeats 2 and 3 (R2-R3) were expressed at +37°C for 3–4 h in Escherichia coli BL21(DE3) strain as previously described. Briefly, proteins were purified using nickel nitrilotriacetic acid-agarose (Qiagen) as a first step. The His-tag was removed by tobacco etch virus protease (Invitrogen). For further purification, size exclusion chromatography (Superdex 75 16/60 and 26/60 columns, Amersham Biosciences) for ALP, and ion exchange (ProteinPakQ 8HR columns, Waters) for α-actinin fragments were used. The molecular weight standards for the gel filtration were obtained from Bio-Rad Laboratories. For NMR analysis, ^15N-labelled ALP107-273 and ^15N^13C-labelled ALP107-273 were produced in general M9-media with supplements. Expression was induced with 1 mM isopropyl-1-thio-β-D-galactopyranoside (IPTG) at +37°C for 8 hrs in E. coli BL21(DE3) strain. Low molecular weight markers used in SDS-polyacrylamide electrophoresis were obtained from Amersham Biosciences. Five ALP peptides were purchased from EZBiolab Inc. (Westfield, IN, USA).
A Biacore 3000 system (Biacore, Uppsala, Sweden) was used for surface plasmon resonance (SPR) analysis. Ligand immobilization was performed via amine coupling to gold sensor chips (CM5). […]

For data set [2], the target named is α-actinin 2 rod domain, spectrin repeats 1-4 (R1-R4) (human) (UniProt P35609). The experiment in a line: SPR; Biacore 3000; α-actinin rod fragment (R1-R4 or R2-R3) immobilised by amine coupling on CM5; ALP107-273 or ALP peptides as soluble analyte; 20 mM Tris pH 7.4, 150 mM NaCl, 0.005% P20; apparent Kd.
Sequence of α-actinin 2 rod domain, spectrin repeats 1-4 (R1-R4) (human) (P35609 274-746): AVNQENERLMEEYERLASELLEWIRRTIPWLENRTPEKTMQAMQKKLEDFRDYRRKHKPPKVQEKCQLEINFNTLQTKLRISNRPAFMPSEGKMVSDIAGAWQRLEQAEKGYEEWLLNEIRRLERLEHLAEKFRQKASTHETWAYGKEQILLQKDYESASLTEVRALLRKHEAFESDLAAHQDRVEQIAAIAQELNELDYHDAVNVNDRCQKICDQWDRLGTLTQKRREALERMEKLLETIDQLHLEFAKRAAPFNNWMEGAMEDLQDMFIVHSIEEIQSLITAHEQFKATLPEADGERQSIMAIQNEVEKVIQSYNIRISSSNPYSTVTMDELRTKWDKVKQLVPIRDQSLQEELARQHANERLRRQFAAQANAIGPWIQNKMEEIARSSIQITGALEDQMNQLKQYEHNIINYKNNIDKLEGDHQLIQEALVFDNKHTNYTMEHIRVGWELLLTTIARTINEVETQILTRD
Data set [3] has as its target ALP107-273 (internal region fragment of actinin-associated LIM protein, residues 107-273) (human). As to the kind of experiment: SPR; Biacore 3000; ALP107-273 or peptide 3 immobilised by amine coupling on CM5; R1-R4 or R2-R3 as soluble analyte; 20 mM Tris pH 7.4, 150 mM NaCl, 0.005% P20; apparent Kd. In general terms: In SPR one partner is held on a chip, and binding of the other changes the refractive index at the surface.

Data set [4] deals with T2, α-actinin 2 rod domain, spectrin repeats 1-4 (R1-R4) (human, UniProt P35609 274-746).
T2 construct: α-actinin 2, human, spectrin repeats 1-4, residues 274-746; also called α-actinin rod; α-actinin rod region; source: E. coli BL21(DE3), purified (Ni-NTA, TEV removal of the His-tag, ion exchange)
T2 sequence (P35609 274-746): as above
Described as above. Particulars: both partners purified.

Data set [5] can be described thus: Concentration reached after purification. Type of data set: physicochemical. Particulars: purified protein fragment. The method, then:
as §2

For data set [6], the system named is U2OS cells, α-actinin in actin stress fibres. As to the kind of experiment: Live cell localization of YFP fusion with α-actinin-CFP. Type of data set: cell-based, human. Particulars: YFP fusion expressed with α-actinin-CFP in living U2OS cells.
Text: as §1
Human osteosarcoma (U2OS) cells were maintained in Dulbecco's modified Eagle's medium (DMEM) supplemented with 10% fetal bovine serum (Hyclone), 2 mM L-glutamine, penicillin and streptomycin (Sigma-Aldrich). Transfected cells were re-plated on fibronectin (10 μg/ml) coated glass bottom dishes (MatTek). General growth medium was used as imaging medium. The time lapse images were acquired with an IX-71 inverted microscope (Olympus) equipped with a Polychrome IV monochromator (TILL Photonics) with the appropriate filters, an Andor iXon (Andor) camera, a heated sample environment (+37°C) and CO2-control. A PLAPON 60xO TIRFM 60x/1,45 (oil) objective (Olympus) was used. […]

Data set [7] concerns the target T3, α-actinin spectrin repeats 2–3 (R2-R3) of human α-actinin 2 (Homo sapiens, UniProt P35609).
T3 construct: repeats 2 and 3 (residues 371–637) of human α-actinin 2; His-tag (cleaved yes); made in house; host or cells: Escherichia coli BL21(DE3)
As to the kind of experiment: SPR interaction with α-actinin R2-R3. Type of data set: binding. Particulars: Biacore 3000, R2-R3 immobilized, ALP107-273 as analyte.
Text: as §1
ALP internal fragments and an α-actinin rod containing the spectrin repeats 1–4 (R1-R4) and a fragment containing spectrin repeats 2 and 3 (R2-R3) were expressed at +37°C for 3–4 h in Escherichia coli BL21(DE3) strain as previously described. Briefly, proteins were purified using nickel nitrilotriacetic acid-agarose (Qiagen) as a first step. The His-tag was removed by tobacco etch virus protease (Invitrogen). For further purification, size exclusion chromatography (Superdex 75 16/60 and 26/60 columns, Amersham Biosciences) for ALP, and ion exchange (ProteinPakQ 8HR columns, Waters) for α-actinin fragments were used. The molecular weight standards for the gel filtration were obtained from Bio-Rad Laboratories. […]

The next data set relates to CHO cells, stress fibres. As to the kind of experiment: Localization of YFP-ALP107-273 mutants at stress fibres. As to conditions: YFP fused to ALP107-273 with deletions or mutations; CHO cells 24 h after transfection, 4 h on fibronectin; blinded scoring. Type of data set: cell-based.
Text: as §1
The pEYFP ALP107-273 and mutants were transfected into CHO cells as described previously. Following 24 hrs transfection, the cells were seeded for 4 hrs on coverslips coated with 10 μg/ml human plasma fibronectin (Sigma) and fixed with 4% paraformaldehyde in 140 mM NaCl, 10 mM Na-Phosphate pH 7.4. The coverslips were coded and the number of cells with YFP localization at stress fibres was counted by two observers who were blinded to the identity of the samples. At least 100 cells were scored from each coverslip, four coverslips were used per transfection, and the experiment was repeated at least three times.

T1 sequence (P35609 274-746): as above
T3 sequence (P35609 371-637): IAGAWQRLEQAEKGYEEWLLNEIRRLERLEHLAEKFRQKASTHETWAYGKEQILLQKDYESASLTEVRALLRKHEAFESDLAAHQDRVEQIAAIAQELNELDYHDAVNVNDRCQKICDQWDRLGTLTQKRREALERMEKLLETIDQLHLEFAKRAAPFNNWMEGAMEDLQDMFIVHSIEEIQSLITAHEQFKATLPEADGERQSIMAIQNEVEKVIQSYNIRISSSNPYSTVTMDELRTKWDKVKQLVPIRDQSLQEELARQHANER

Consider “MNKPEQALLVQIHPLVTEPFMG [scrambled version of peptide 3, scrambled peptide 3 containing the same amino acids in random order, reference compound]”, for which the “interaction with the rod domain in SPR” value in data set [1] (comparison with peptide 3 (Fig 7D)) is “did not interact”.

In the case of “ALP107-273 (internal region fragment of actinin-associated LIM protein, residues 107-273) (domain or fragment)”, in data set [2], the Kd is 270 nM.

For “α-actinin 2 rod domain, spectrin repeats 1-4 (R1-R4) (from UniProt P35609 274-746) (domain or fragment)”, the Kd in data set [3] was found to be 4.5 µM.

B1: ALP peptide 3 (residues 175-196) (peptide)
peptide: PLEMELPGVKIVHAQFNTPMQL
notes: source: synthetic peptide, bought: EZBiolab Inc
B1: in data set [4], the Kd turned out to be 3000 nM.

B2: ALP107-273: 167 residue construct of the human ALP internal region, residues 107–273; used as YFP fusion in cells (protein, UniProt Q53GG5 107-273, looked up, fragment)
chain: SEPQDGNYFEHKHNIRPKPFVIPGRSSGCSTPSGIDCGSGRSTPSSVSTVSTICPGDLKVAAKLAPNIPLEMELPGVKIVHAQFNTPMQLYSDDNIMETLQGQVSTALGETPLMSEPTASVPPESDVYRMLHDNRNEPTQPRQSGSFRVLQGMVDDGSDDRPAGTRS
modifications: YFP fusion
notes: 167 residue construct of the human ALP internal region, residues 107–273; used as YFP fusion in cells
For B2, in data set [5], the “concentration to which the purified fragment could be concentrated” value was “up to 30 mg/ml”. Also, the “co-localization with α-actinin” value in data set [6] is “co-localized with α-actinin in the stress fibres”. The Kd in data set [1] (Biacore 3000, CM5 amine coupling, R1-R4 immobilized, ALP107-273 as analyte) is 270 nM; in data set [1] (Biacore 3000, immobilized ALP107-273, soluble R1-R4) it was 4500 nM; in data set [7] it was 6.8 nM.

B3: YS197-198FA: YFP-ALP107-273 point mutant, conserved tyrosine and serine of ZM motif changed to phenylalanine and alanine (protein, UniProt Q53GG5 107-273, looked up, variant Y197F S198A)
chain: SEPQDGNYFEHKHNIRPKPFVIPGRSSGCSTPSGIDCGSGRSTPSSVSTVSTICPGDLKVAAKLAPNIPLEMELPGVKIVHAQFNTPMQLFADDNIMETLQGQVSTALGETPLMSEPTASVPPESDVYRMLHDNRNEPTQPRQSGSFRVLQGMVDDGSDDRPAGTRS
modifications: residues 107-273 YFP fusion
notes: YFP-ALP107-273 point mutant, conserved tyrosine and serine of ZM motif changed to phenylalanine and alanine
Regarding B3, the “YFP localization at stress fibres” value in the data set on CHO cells, stress fibres was “abrogated localization”.

The record behind these values is publication PMC2670261, “Characterization of the interaction between Actinin-Associated LIM Protein (ALP) and the rod domain of α-actinin” (BMC Cell Biology, 2009).
